Measured values from US20260008815A1, “CYCLIC PEPTIDE OR SALT THEREOF, AND USES THEREOF” (FUJIFILM Corporation, priority 2023, published 2026).
Numbered stars: 1 amine (or outer) side, 2 acyl side, 3 side chain; on linkers, the order of the positions; unused ones are H or OH. Bridge positions count the residues as written; N and C are the ends. Ends that are not written are not given here. acetyl = acetyl (haloacetyl before ring closure) on the side-chain amine, O=C(C[*:1])[*:2]; COCH2 = acetyl group that carries the bridge

Biological target: T1, Recombinant Human FGFR2 alpha (IIIc) Fc Chimera Protein (Homo sapiens, UniProt P21802)
T1 construct: Fc (chimera); purchased R&D systems 712-FR-050
Test: ELISA binding affinity of enzymatically synthesized peptide to FGFR
Conditions: ELISA luminescence signal at 10 nmol/L peptide, SEQ ID NO: 47 at 10 nmol/L standardized to 1; enzyme synthesis product
Experimental: The binding affinity of the peptide to FGFR was evaluated using an ELISA method.
The binding affinity of the enzymatically synthesized peptide to FGFR was measured by evaluating the amount of the peptide bound to FGFR by ELISA.
First, 5 ng of Recombinant Human FGFR2 alpha (IIIc) Fc Chimera Protein (R&D systems, 712-FR-050) was immobilized in each well of a 96-well plate, and blocked with Pierce Protein-Free (PBS) Blocking Buffer (Thermo, 37572), and a peptide diluted with Can Get Signal Immunoreaction Enhancer Solution I (TOYOBO, NKB-101) was then added and reacted at room temperature for 3 hours. After washing with 0.05% Tween 20-containing phosphate buffered saline (PBS), an anti-Myc antibody (Cell Signaling, 14038S) diluted with Can Get Signal Immunoreaction Enhancer Solution II (TOYOBO, NKB-101) was added and reacted at room temperature for 2 hours. After washing with 0.05% Tween 20-containing PBS, SuperSignal ELISA Femto Substrate (Thermo, 37075) was added, and the luminescence amount was measured. The dose-response relationship was calculated from using the difference between the luminescence amount in the well in which FGFR was immobilized and the luminescence amount in the well in which FGFR was not immobilized, and the concentration of the peptide at the time of reaction, and the binding affinity to FGFR was evaluated according to the following evaluation criteria. The evaluation result preferably satisfies the evaluation criteria A, B, or C.
In a case where a value of a luminescence signal emitted by the cyclic peptide set forth in SEQ ID NO: 47 at a reaction concentration of 10 nmol/L is standardized to 1, evaluation criteria of the luminescence signal value emitted by the cyclic peptide at a reaction concentration of 10 nmol/L is as follows. • A: 0.7 or more • B: 0.5 or more and less than 0.7 • C: 0.1 or more and less than 0.5 • D: less than 0.1.

T1 sequence (P21802 with tags, fused parts or gaps limits assumed): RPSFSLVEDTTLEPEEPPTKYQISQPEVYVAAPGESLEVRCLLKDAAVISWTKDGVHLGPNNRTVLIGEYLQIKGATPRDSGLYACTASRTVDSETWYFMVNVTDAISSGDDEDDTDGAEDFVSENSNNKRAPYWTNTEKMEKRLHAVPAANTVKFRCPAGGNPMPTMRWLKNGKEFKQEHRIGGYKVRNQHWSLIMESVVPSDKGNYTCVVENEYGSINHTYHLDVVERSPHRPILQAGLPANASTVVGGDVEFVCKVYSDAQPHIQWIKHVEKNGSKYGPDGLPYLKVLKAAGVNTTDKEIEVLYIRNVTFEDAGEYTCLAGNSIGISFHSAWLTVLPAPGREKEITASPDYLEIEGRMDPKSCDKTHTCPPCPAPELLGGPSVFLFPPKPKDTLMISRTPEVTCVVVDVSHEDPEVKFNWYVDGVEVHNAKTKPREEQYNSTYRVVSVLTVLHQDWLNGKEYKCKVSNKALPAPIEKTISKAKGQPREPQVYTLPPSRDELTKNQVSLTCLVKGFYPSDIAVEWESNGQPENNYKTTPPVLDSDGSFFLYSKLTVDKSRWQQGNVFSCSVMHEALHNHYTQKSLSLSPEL

Substance | Evaluation result of binding affinity to FGFR
36 (CRALLRGAPFHLAEK(COCH2); thioether 1-15) [compound 36] | D (less than 0.1)
37 (QCQLNYWDDLQFTYYLQYK(COCH2)V; thioether 2-19) [compound 37] | A (0.7 or more)
38 (QCSYLYQYVFERYKVTVPK(COCH2)D; thioether 2-19 (inferred)) [compound 38] | A (0.7 or more)
39 (QCENWLSQDQWKYFWQYK(COCH2)I; thioether 2-18 (inferred)) [compound 39] | A (0.7 or more)
40 (DCSGNFFSKEQFHYLELFK(COCH2)K; thioether 2-19 (inferred)) [compound 40] | A (0.7 or more)
41 (LCGNYITPLQWKYFQTYK(COCH2)W; thioether 2-18 (inferred)) [compound 41] | A (0.7 or more)
42 (QCYFLSQYILERYKVHK(COCH2)L; thioether 2-17 via acetyl) [compound 42] | A (0.7 or more)
43 (HCNANFVYQQQYLYLLQYK(COCH2)L; thioether 2-19 via acetyl) [compound 43] | B (0.5 or more and less than 0.7)
44 (ACEYNYWNQVQFTFLIAFK(COCH2)R; thioether 2-19 via acetyl) [compound 44] | B (0.5 or more and less than 0.7)
45 (TCPQNFRDELQFTYFTQYKY; Description of Artificial Sequence: Cyclic peptide) [compound 45] | A (0.7 or more)
46 (SCIQQNYFWQYVFERYRYKQ; Description of Artificial Sequence: Cyclic peptide) [compound 46] | B (0.5 or more and less than 0.7)
47 (KCPQNFINPVQWRYFQHYKN; not fully specified; Description of Artificial Sequence: Cyclic peptide) [compound 47] | A (0.7 or more)
48 (GCYWNEVQYYYLQQYKQ; Description of Artificial Sequence: Cyclic peptide) [compound 48] | A (0.7 or more)
49 (SCQGNWISNTQFRYFIAYK(COCH2)T; thioether 2-19; not fully specified (residue 1); printed as s-(C)-QGNWISNTQFRYFIAY-(K(acetyl))-T) [compound 49] | A (0.7 or more)
50 (ACGQNFYHPVQFHYFIAYKQ; Description of Artificial Sequence: Cyclic peptide) [compound 50] | A (0.7 or more)
51 (VCHSNFLSAVQYAYFYQYKH; Description of Artificial Sequence: Cyclic peptide) [compound 51] | A (0.7 or more)
52 (VCNENNWSRSQYHFFLQYKY; Description of Artificial Sequence: Cyclic peptide) [compound 52] | C (0.1 or more and less than 0.5)
53 (ACPQNFINPVQWRYFQHYKN; not fully specified; Description of Artificial Sequence: Cyclic peptide) [compound 53] | A (0.7 or more)
54 (KCAQNFINPVQWRYFQHYKN; Description of Artificial Sequence: Cyclic peptide) [compound 54] | A (0.7 or more)
55 (KCPANFINPVQWRYFQHYK(COCH2)N; thioether 2-19 (inferred)) [compound 55] | A (0.7 or more)
56 (KCPQAFINPVQWRYFQHYK(COCH2)N; thioether 2-19 (inferred)) [compound 56] | C (0.1 or more and less than 0.5)
57 (KCPQNAINPVQWRYFQHYK(COCH2)N; thioether 2-19 (inferred)) [compound 57] | B (0.5 or more and less than 0.7)
58 (KCPQNFANPVQWRYFQHYK(COCH2)N; thioether 2-19 (inferred)) [compound 58] | B (0.5 or more and less than 0.7)
59 (KCPQNFIAPVQWRYFQHYK(COCH2)N; thioether 2-19 (inferred)) [compound 59] | B (0.5 or more and less than 0.7)
60 (KCPQNFINAVQWRYFQHYK(COCH2)N; thioether 2-19 (inferred)) [compound 60] | A (0.7 or more)

Substance | Evaluation result of binding affinity to FGFR
61 (KCPQNFINPAQWRYFQHYK(COCH2)N; thioether 2-19 (inferred)) [compound 61] | A (0.7 or more)
62 (KCPQNFINPVQARYFQHYK(COCH2)N; thioether 2-19 (inferred)) [compound 62] | C (0.1 or more and less than 0.5)
63 (KCPQNFINPVQWAYFQHYK(COCH2)N; thioether 2-19 (inferred)) [compound 63] | A (0.7 or more)
64 (KCPQNFINPVQWRAFQHYK(COCH2)N; thioether 2-19 (inferred)) [compound 64] | B (0.5 or more and less than 0.7)
65 (KCPQNFINPVQWRYFAHYK(COCH2)N; thioether 2-19 (inferred)) [compound 65] | A (0.7 or more)
66 (KCPQNFINPVQWRYFQAYK(COCH2)N; thioether 2-19 (inferred)) [compound 66] | A (0.7 or more)
67 (KCPQNFINPVQWRYFQHYKA; not fully specified; also: cyclic peptide, ring places not shown) [compound 67] | A (0.7 or more)
68 (KCQNFINPVQWRYFQHYK(COCH2)N; thioether 2-18 (inferred)) [compound 68] | A (0.7 or more)
69 (KCPQNFINPVQWRYFQHYAKN; not fully specified; also: cyclic peptide, ring places not shown) [compound 69] | C (0.1 or more and less than 0.5)
70 (KCAPQNFINPVQWRYFQHYK(COCH2)N; thioether 2-20 (inferred)) [compound 70] | B (0.5 or more and less than 0.7)
71 (GCPQNFINPVQWRYFQHYK(COCH2)N; thioether 2-19 (inferred)) [compound 71] | A (0.7 or more)
72 (PCPQNFINPVQWRYFQHYK(COCH2)N; thioether 2-19 (inferred)) [compound 72] | A (0.7 or more)
73 (LCPQNFINPVQWRYFQHYK(COCH2)N; thioether 2-19 (inferred)) [compound 73] | A (0.7 or more)
74 (ICPQNFINPVQWRYFQHYK(COCH2)N; thioether 2-19 (inferred)) [compound 74] | A (0.7 or more)
75 (VCPQNFINPVQWRYFQHYK(COCH2)N; thioether 2-19 (inferred)) [compound 75] | A (0.7 or more)
76 (FCPQNFINPVQWRYFQHYK(COCH2)N; thioether 2-19 (inferred)) [compound 76] | A (0.7 or more)
77 (YCPQNFINPVQWRYFQHYK(COCH2)N; thioether 2-19 (inferred)) [compound 77] | A (0.7 or more)
78 (WCPQNFINPVQWRYFQHYK(COCH2)N; thioether 2-19 (inferred)) [compound 78] | A (0.7 or more)
79 (NCPQNFINPVQWRYFQHYK(COCH2)N; thioether 2-19 (inferred)) [compound 79] | A (0.7 or more)
80 (QCPQNFINPVQWRYFQHYK(COCH2)N; thioether 2-19 (inferred)) [compound 80] | A (0.7 or more)
81 (SCPQNFINPVQWRYFQHYK(COCH2)N; thioether 2-19 (inferred)) [compound 81] | A (0.7 or more)
82 (TCPQNFINPVQWRYFQHYK(COCH2)N; thioether 2-19 (inferred)) [compound 82] | A (0.7 or more)
83 (DCPQNFINPVQWRYFQHYK(COCH2)N; thioether 2-19 (inferred)) [compound 83] | A (0.7 or more)
84 (ECPQNFINPVQWRYFQHYK(COCH2)N; thioether 2-19 (inferred)) [compound 84] | A (0.7 or more)
85 (RCPQNFINPVQWRYFQHYK(COCH2)N; thioether 2-19 (inferred)) [compound 85] | A (0.7 or more)
